Experimental findings from doi:10.1101/827691 are described below.

The test addresses α1-subCD3 as used in cross-linking and NMR (apparent molecular weight 27 kDa) (human) (UniProt P05023). Nature of the test: cross-linking.

Consider “N-terminally His6-tagged FGF2 (18 kDa isoform), wild type (from UniProt P09038-2 1-155) (natural protein)”, for which the stoichiometry N (FGF2 per α1-subCD3) was determined as 1.
